Assay results taken from patent US20240360206A1 (ALZPATH, published 2024).
Residue numbers refer to the chain shown, from its start.

T1: Peptide C (none)
T1 construct: only Peptide C; also called WZN-1C; T217
T1 peptide: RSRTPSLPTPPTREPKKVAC

T2: Peptide D (phosphothreonine at position 4 of the peptide (pT212 by the filing's name))
T2 construct: also called WZN-1D; pT212
T2 peptide: RSRTPSLPTPPTREPKC

T3: Peptide A (phosphothreonine at position 9 of the peptide (pT217 by the filing's name))
T3 construct: also called WZN-1A; pT217a
T3 peptide: RSRTPSLPTPPTREPKC

T4: Peptide B (phosphothreonine at position 6 of the peptide (pT217 by the filing's name))
T4 construct: also called WZN-1B; pT217b
T4 peptide: TPSLPTPPTREPKKVAC

B1: PT3 (antibody, V domains shown)
VH: EVKLVESGGDLVKPGGSLKLSCAASGFTFSSYAMSWVRQNPEKRLEWVASISKGGNTYYPNSVKGRFTISRDNARNILYLQMSSLRSEDTALYYCARGWGDYGWFAYWGQVTLVTVSA
VL: DIKMTQSPSSMYASLGERVTITCKASQDINRYLNWFQQKPGKSPKTLIYRANRLLDGVPSRFSGSGSGQDYSLTISSLDYEDMGIYYCLQYDEFPLTFGDGTKLELK
B2: Antibody 6 (antibody, V domains shown)
VH: QSLEESGGRLVTPGTPLTLTCTVSGIDLSTHAMTWVRQAPGKGLEWIGVINPSGSAYYATWVNGRFTISKTSTTVDLKITSPTTGDTAKYFCARDYITAGDYYMDAFDPWGPGTLVTVSS
VL: DIVMTQTPASVSAAVGGTVTIKCQASQSISNQLSWYQQKSGQPPKLLIYRASTLASGVPSRFKGSGSGTEFTLTISDLECADAATYYCQQGYNRDNVDNLFGGGTEVVVKG
notes: Rabbit monoclonal antibody; also called 71H1L2
B3: Antibody 1 (antibody, V domains shown)
VH: QSLEESGGRLVTPGTPLTLTCTVSGFSLSSQKVGWVRQAPGKGLEWIGIINNYGSTYYASWAKGRFTISKTSTTVDLRITSLTAEDTATYFCARDPDGSIVFDIWGPGTLVTVSL
VL: AQVLTQTASPVSAAVGGTVTINCQSSQSVVYNNRLSWFQQKPGQPPKLLIYGASTLASGVPSRFKGSGSGTQFTLTISDVQCDDAATYYCLGSYDCSSGDCHAFGGGTEVVVKG
B4: Antibody 4 (antibody, V domains shown)
VH: B3 VH with S29N, S30N, Q31Y, N52Y, G54S, S55Q, R78K, I79L, L82P, A84T
VL: AQVLTQTASPVSAAVGSTVTINCQSSQSVYSNKRLAWFQLKPGQPPKLLIYGASTLASGVPSRFKGSGSGTQFTLTISDVQCDDAATYYCAGGYDCSTGDCWTFGGGTEVVVTG
B5: Antibody 3 (antibody, V domains shown)
VH: QSVEESGGRLVTPGTPLTLTCTVSGFSLSSYAMIWVRQAPGKGLEWIGFISRSGITYYASWAKGRFTISKTSTTVDLKMTSLTTEDTATYFCAREFGAVGSDYYRDAFNLWGPGTLVTVSS
VL: DIVMTQTPSSVSAAVGGTVTINCQASQNIYSNLAWYQQKPGQRPRLLIYGASNLASGVPSRFKGSRSGTEFTLTISDLECADAATYYCQGYDYSTAGAYPFGGGTAVVVKG
B6: Antibody 5 (antibody, V domains shown)
VH: B5 VH with R9G, T15G, P16T, S30N, I34S, M79I, L82P, T89A, F108L, N109R
VL: DIVMTQTPSSVSAAVGGTVTIKCQASQSIGSNLAWYQQKPGQPPKLLIYGASTLESGVPSRFKGSGSGTEYTLTISDLECADAATYYCQSYYEGSDIGYAFGGGTEVVVEG
notes: Rabbit monoclonal antibody; also called 62H10L7
B7: Antibody 2 (antibody, V domains shown)
VH: B5 VH
VL: DIVMTQTPASVEAAVGGTVTINCQASESINSWLSWYQQKPGQPPNLLIYRASTLASGVPSRFSGGGSGTEYTLTISDLECADAVTYYCQSYYEEDGIGYAFGGGTEVVVEG
notes: Rabbit monoclonal antibody; also called 30H10L2

Columns and labels:
full length Tau (Tau441) = biological target: T5, full length Tau (Tau441) (UniProt P10636-8 1-441); test: indirect ELISA on Tau441, antibody titrated
T5 construct: also called synthetic full length Tau

Peptide C = biological target: T1, Peptide C; test: indirect ELISA, peptide coated on the plate, HRP goat anti-rabbit antibody, TMB, read at 650 nm; axes without titles
Method: (§1) Antibodies were generated and purified. The antibodies were assayed using a standard indirect ELISA protocol. Briefly, peptide antigens corresponding to SEQ ID NOs: 74-81 were diluted to 1 μg/ml in PBS and plated onto a Greiner Bio One Microlon 96 well plate. Peptide antigens were produced by the manufacturer Abcam. WZN-1A and WZN-1B served as targets. WZN-1C, WZN-1D, WZN-1E, WZN-1F, WZN-1G, and WZN-1H served as negative controls. In the peptide antigen sequences, a phosphorylated residue is indicated by (pT) for phosphorylated threonine or (pS) for phosphorylated serine. After blocking with 1% BSA in PBS pH 7.4, antibodies were serially diluted 1 to 4 with an initial concentration of 1 μg/ml. After incubation, unbound antibodies were washed off with 1×TBST and HRP labeled goat anti-rabbit secondary antibody was applied according to the manufacturer's instructions. Subsequently, unbound secondary antibody was washed off with 1×TBST and 3,3′5,5′-tetramethylbenzidine (TMB) was applied for 5 minutes at room temperature and plates were read at 650 nm. Data is seen in FIG. 3.

Peptide D = biological target: T2, Peptide D; test: as above
Method: as §1

Peptide A = biological target: T3, Peptide A; test: as above
Method: as §1

Peptide B = biological target: T4, Peptide B; test: as above
Method: as §1

T5 sequence (P10636 other isoform, or with tags, fused parts or gaps limits assumed): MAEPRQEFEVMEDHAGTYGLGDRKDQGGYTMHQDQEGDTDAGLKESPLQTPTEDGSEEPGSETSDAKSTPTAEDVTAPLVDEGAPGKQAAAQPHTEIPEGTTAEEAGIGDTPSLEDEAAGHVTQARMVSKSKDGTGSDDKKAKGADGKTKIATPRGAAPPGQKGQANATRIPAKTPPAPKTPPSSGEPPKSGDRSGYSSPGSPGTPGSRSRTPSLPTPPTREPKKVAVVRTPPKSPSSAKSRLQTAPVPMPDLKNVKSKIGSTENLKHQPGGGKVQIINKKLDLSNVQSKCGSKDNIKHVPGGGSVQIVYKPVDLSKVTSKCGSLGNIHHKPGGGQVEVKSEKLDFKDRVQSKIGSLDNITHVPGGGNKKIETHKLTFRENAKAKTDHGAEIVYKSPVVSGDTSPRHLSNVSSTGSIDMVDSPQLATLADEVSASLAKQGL

Row | Binder | binding result (full length Tau (Tau441)) | binding result (Peptide C) | other results
1 | B1 |  |  | EC50 (read off the curve) (full length Tau (Tau441)): ~0.2 µg/mL
2 | B2 | no binding (tested: 10^4 ng/mL) | no binding | 
3 | B3 |  | no binding | 
4 | B4 |  | no binding | 
5 | B5 |  | no binding | binding result (Peptide D): no binding; binding result (Peptide A): no binding; binding result (Peptide B): no binding
6 | B6 | no binding (tested: 10^4 ng/mL) | no binding | 
7 | B7 | no binding (tested: 10^4 ng/mL) | no binding | 
